Measured values as given in the supplement of paper PMC12667976.
± gives the standard error.

B1: library; numbered along this chain (parent)
chain: MATDAALRRLLRLHRTEIAVAVDSAFPLLHALADHDVVPEDKFQETLHLKEKEGCPQAFHALLSWLLTQDSTAILDFWRVLFKDYNLERYGRLQPILDSFPKDVDLSQPRKGRKPPAVPKALVPPPRLPTKRKASEEARAAAPAALTPRGTASPGSQLKAKPPKKPESSAEQQRLPLGNGIQTMSASVQRAVAMSSGDVPGARGAVEGILIQQVFESGGSKKCIQVGGEFYTPSKFEDSGSGKNKARSSSGPKPLVRAKGAQGAAPGGGEARLGQQGSVPAPLALPSDPQLHQKNEDECAVCRDGGELICCDGCPRAFHLACLSPPLREIPSGTWRCSSCLQATVQEVQPRAEEPRPQEPPVETPLPPGLRSAGEEVRGPPGEPLAGMDTTLVYKHLPAPPSAAPLPGLDSSALHPLLCVGPEGQQNLAPGARCGVCGDGTDVLRCTHCAAAFHWRCHFPAGTSRPGTGLRCRSCSGDVTPAPVEGVLAPSPARLAPGPAKDDTASHEPALHRDDLESLLSEHTFDGILQWAIQSMARPAAPFPS

Variants of: B1
Assay: AIRE transcriptional activation functional score (insulin promoter-GFP; nonsense median 0, synonymous median 1) (normalised score); higher = higher AIRE activity (more reporter activation)
Details: with insulin promoter-GFP reporter in HEK293
Method: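 Deep mutational scan of full-length human AIRE (codon-optimized cDNA, DT-POPCode NNN libraries over three regions) integrated at a Bxb1 landing pad in HEK293 cells carrying an insulin core promoter-GFP reporter at a Flp-In site. Cells were sorted for the top 10% GFP about 14 days after transfection. Variant frequency log-ratios (select vs non-select, TileSeq) were rescaled so that the nonsense median is 0 and the synonymous median is 1, then averaged over biological replicates.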

Row | Variant | AIRE transcriptional activation functional score
1 | G467L | 1.46 ± 0.33
2 | R513F | 1.18 ± 0.22
3 | Q173V | 1.32 ± 0.38
4 | Q173H | 0.885 ± 0.53
5 | A144Y | 1.48 ± 0.23
6 | S156K | 0.349 ± 0.15
7 | F230Y | 0.502 ± 0.27
8 | R79S | 0.372 ± 0.52
9 | V479T | 0.956 ± 0.13
10 | G219Y | 1.14 ± 0.054
11 | G219F | 0.625 ± 0.088
12 | A321C | 0.948 ± 0.093
13 | A246Y | 1.43 ± 0.18
14 | A246N | 0.102 ± 0.052
15 | Q182D | 0.345 ± 0.72
16 | I181E | 0.0205 ± 0.7
17 | D198A | 1.03 ± 0.37
18 | D198E | 1.2 ± 0.13
19 | I330P | 1.33 ± 0.23
20 | A452M | 0.473 ± 0.13
21 | R336N | 1.03 ± 0.2
22 | P355R | 1.04 ± 0.27
23 | G227A | 0.503 ± 0.21
24 | P266E | 0.486 ± 0.14

Row | Variant | AIRE transcriptional activation functional score
25 | V443W | 0.235 ± 0.036
26 | Y90E | -0.843 ± 0.17
27 | R303G | 1.34 ± 0.12
28 | W78C | 0.126 ± 0.12
29 | I309H | 0.916 ± 0.046
30 | K222T | 0.149 ± 0.57
31 | E88D | 0.357 ± 0.23
32 | P148N | 0.598 ± 0.25
33 | T468Y | 1.25 ± 0.2
34 | S169Y | 1.62 ± 0.17
35 | T183F | 0.248 ± 0.33
36 | H396A | 0.663 ± 0.22
37 | A25P | 0.792 ± 0.57
38 | S506V | 0.824 ± 0.37
39 | P163M | 0.889 ± 0.24
40 | D439P | 0.0529 ± 0.088
41 | K245S | 0.252 ± 0.21
42 | K245F | 1.67 ± 0.089
43 | P407W | 1.13 ± 0.046
44 | D442I | -0.0637 ± 0.095
45 | D442N | 0.93 ± 0.046
46 | D442A | 0.791 ± 0.17
47 | D4E | 1.26 ± 0.14
48 | G313N | 0.241 ± 0.062

Row | Variant | AIRE transcriptional activation functional score
49 | L444T | 0.477 ± 0.063
50 | D105A | 1.52 ± 0.28
51 | D105Q | -0.785 ± 0.28
52 | S324C | 1.03 ± 0.16
53 | D70T | 0.428 ± 0.28
54 | E423V | 1.2 ± 0.16
55 | E423Y | 1.38 ± 0.081
56 | Q275F | 1.11 ± 0.12
57 | A6H | 0.532 ± 0.11
58 | V37H | 0.218 ± 0.17
59 | K102D | 0.758 ± 0.45
60 | K102N | 1.44 ± 0.56
61 | T447F | 0.707 ± 0.19
62 | P422S | 0.814 ± 0.39
63 | V199T | 0.462 ± 0.32
64 | V118N | 0.783 ± 0.28
65 | V118W | 1.13 ± 0.21
66 | V206M | 0.51 ± 0.084
67 | V206H | 0.927 ± 0.24
68 | S71Y | 1.52 ± 1.2
69 | S474M | 0.192 ± 0.059
70 | C311N | 1.47 ± 0.17
71 | P125Y | 0.77 ± 0.17
72 | P125Q | 0.768 ± 0.42

Row | Variant | AIRE transcriptional activation functional score
73 | M184L | 0.411 ± 0.29
74 | M184P | 0.519 ± 0.19
75 | D36C | -0.525 ± 0.023
76 | I224L | 0.689 ± 0.26
77 | I224T | 0.559 ± 0.09
78 | S99G | 0.382 ± 0.59
79 | W531L | 0.702 ± 0.41
80 | L370C | 1.12 ± 0.091
81 | L283Q | 0.784 ± 0.11
82 | L283T | 1.02 ± 0.36
83 | W335H | 0.428 ± 0.28
84 | W335E | 1.3 ± 0.14
85 | C437N | 0.452 ± 0.035
86 | A461S | 1.22 ± 0.23
87 | A493P | 0.631 ± 0.49
88 | A493Y | 1.13 ± 0.092
89 | S250Q | -0.615 ± 0.34
90 | A193M | 0.563 ± 0.053
91 | V104A | -0.013 ± 0.14
92 | G251N | -0.159 ± 0.13
93 | R247A | 0.732 ± 0.44
94 | R247K | 1.2 ± 0.35
95 | S187V | 0.398 ± 0.33
96 | S187A | 0.982 ± 0.22

Row | Variant | AIRE transcriptional activation functional score
97 | C223V | 0.923 ± 0.11
98 | H292I | 0.603 ± 0.25
99 | A413T | 1.17 ± 0.17
100 | Q212S | 1.14 ± 0.32
101 | S402D | 0.871 ± 0.19
102 | K114Q | 0.342 ± 0.43
103 | P101S | -0.303 ± 0.31
104 | A281I | 0.957 ± 0.46
105 | A281Q | 1.02 ± 0.46
106 | D515H | 0.453 ± 0.15
107 | G268M | 1.12 ± 0.1
108 | A138G | 0.96 ± 0.49
109 | A138E | 1.11 ± 0.33
110 | A138M | 2.84 ± 0.08
111 | L32C | -0.199 ± 0.51
112 | K221A | -0.576 ± 0.14
113 | A134Q | 1.1 ± 0.12
114 | T463Y | 0.384 ± 1
115 | T463Q | 0.155 ± 0.73
116 | A186I | -0.146 ± 0.33
117 | G178P | 0.532 ± 0.25
118 | P509L | 0.827 ± 0.28
119 | P289T | 1.37 ± 0.35
120 | Q94L | 0.662 ± 0.36

Row | Variant | AIRE transcriptional activation functional score
121 | Q94F | 0.133 ± 0.15
122 | Q276C | 1.26 ± 0.039
123 | F543I | 0.17 ± 0.19
124 | G263I | -0.607 ± 0.28
125 | G263H | 0.227 ± 0.17
126 | P481A | 0.586 ± 0.34
127 | L7M | 0.507 ± 0.28
128 | L29R | 0.468 ± 0.39
129 | P400F | 0.712 ± 0.24
130 | S476G | 0.844 ± 0.26
131 | R127T | 0.335 ± 0.37
132 | R127W | 0.912 ± 0.12
133 | P499H | 1.16 ± 0.058
134 | S241L | 1.17 ± 0.26
135 | L392W | 1.22 ± 0.14
136 | L392M | 0.734 ± 0.13
137 | F318K | 1.39 ± 0.13
138 | F318V | 0.874 ± 0.24
139 | L67Q | -0.874 ± 0.39
140 | L67Y | 0.237 ± 0.24
141 | E517V | 0.207 ± 0.098
142 | E517H | 0.164 ± 0.15
143 | R190L | 0.356 ± 0.36
144 | R190M | 0.19 ± 0.046

Row | Variant | AIRE transcriptional activation functional score
145 | L177M | 1.57 ± 0.099
146 | L177W | 2.38 ± 0.031
147 | L308H | 1.33 ± 0.081
148 | L308V | 1.16 ± 0.19
149 | V22W | -0.0929 ± 0.089
150 | K131T | -0.293 ± 0.16
151 | S217Q | 0.502 ± 0.15
152 | Q213S | 0.639 ± 0.2
153 | E363T | 1.29 ± 0.19
154 | V279G | 1.08 ± 0.14
155 | V279S | 1.24 ± 0.4
156 | E53H | 0.435 ± 0.54
157 | E53K | 1.55 ± 0.32
158 | S168P | -0.113 ± 0.67
159 | L273H | 0.264 ± 0.23
160 | F59A | 0.101 ± 0.57
161 | F59G | 0.194 ± 0.51
162 | S545A | -0.21 ± 0.1
163 | D514Q | -0.128 ± 0.22
164 | P539V | 0.434 ± 0.12
165 | L87W | -0.816 ± 0.6
166 | H319R | 1.03 ± 0.17
167 | H319V | 0.662 ± 0.14
